Laboratory results: article PMC11294563
pKd: −log10 of the molar value. Each block holds one substance with its values, some of them ahead of it.

Experiments:
[1] = molecular target: PAR-2 RING domain (PAR-2 residues 40-120, core RING domain and flanking dimerization helices) (C. elegans); assay: AUC; sedimentation equilibrium, interference data, 20,000 and 24,000 rpm, three PAR-2 RING concentrations, 20 mM Tris-HCl, 150 mM NaCl, 0.5 mM TCEP; global fit to a monomer-dimer model (SEDPHAT); dimer to monomers
[2] = molecular target: PAR-2 RING domain (PAR-2 residues 40-120, core RING domain and flanking dimerization helices) (C. elegans); assay: SEC-MALS; input samples from 10 to 0.5 mg/ml, 100 µl on Superdex 75 Increase 10/300 GL, 20 mM Tris-HCl, 150 mM NaCl, 0.5 mM TCEP pH 7.5, 1.0 ml/min; weight-averaged molecular weight fitted to a monomer-dimer model
[3] = molecular target: PAR-2 RING domain (PAR-2 residues 40-120, core RING domain and flanking dimerization helices) (C. elegans); assay: SEC-MALS; input sample 0.75 mg/ml, wild type compared with L109R; Superdex 75 Increase 10/300 GL, 20 mM Tris-HCl, 150 mM NaCl, 0.5 mM TCEP pH 7.5
[4] = molecular target: PAR-2 RING domain (residues 40-120) L109R (C. elegans); assay: as above
[5] = molecular target: mNG::PAR-2(L109R) (endogenously tagged PAR-2 with L109R) (C. elegans)

pKd [1]: 6.45
stoichiometry N [2]: 2
dimer fraction at 0.75 mg/ml [3]: 35%
Substance: PAR-2 RING domain (PAR-2 residues 40-120, core RING domain and flanking dimerization helices) (domain or fragment)

dimer fraction at 0.75 mg/ml [4]: 5%
fold reduction in dimer affinity against wild type [4]: 10 fold
Substance: PAR-2 RING domain (residues 40-120) L109R (domain or fragment)

fold reduction in dimerization affinity against PAR-2(WT), from the simultaneous fit of the model to membrane and cytoplasmic concentrations in embryos (common KD^mem) [5]: 6 fold
Substance: mNG::PAR-2(L109R) (endogenously tagged PAR-2 with L109R) (natural protein)
